Molecular target: Epidermal Growth Factor Receptor (EGFR) (human (endogenous in A431)) (UniProt P00533)
Assay: parameter fitting of an ODE model (PottersWheel) and a stochastic simulation (SPS) to immunogold electron microscopy counts; estimated constants; adaptor immunogold label on plasma membrane sheets of A431 cells over a time course of EGF, 20 nM EGF in the model; docking rate multiplied by a scaling factor f and adjusted to match the data

- Kd: 2.13 µM
- koff: 11.7 s⁻¹
- kon: 5.5e+06 M⁻¹ s⁻¹
Substance: Stat5 (from UniProt P42229 1-794) (natural protein)

Source: publication PMC2877007
